Assay results taken from the supplement of paper PMC10598134.
± gives the standard deviation.

Assay: collision cross section of modified peptide (TIMS, N2, iRT-aligned); higher = larger / more extended gas-phase ion
Method in brief: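 Synthetic peptide pools (~100 fmol/µL in 2% acetonitrile/0.1% formic acid, iRT standard spiked 1:40) were separated on a 120-min nanoflow C18 gradient at 60 °C. They were analysed on a timsTOF Pro/HT (dda-PASEF, nitrogen, ~2.4 mbar) and identified with MaxQuant. 1/K0 was calibrated with three reference ions and aligned run-wise to the median iRT peptide deviation. Collision cross section came from the Mason-Schamp equation, averaging 1–3 technical replicates of the most abundant feature per charge state.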

[1] = charge state: 2, modification: Glutarylation
[2] = charge state: 2, modification: Dimethyl (K)
[3] = charge state: 3, modification: Dimethyl (K)
[4] = charge state: 3, modification: Methyl (K)
[5] = charge state: 3, modification: Trimethyl (K)
[6] = charge state: 2, modification: Acetyl (K)
[7] = charge state: 2, modification: Succinyl
[8] = charge state: 3, modification: Succinyl
[9] = charge state: 2, modification: Citrullination (R)
[10] = charge state: 2, modification: Nitro (Y)
[11] = charge state: 3, modification: Nitro (Y)
[12] = charge state: 2, modification: Formyl
[13] = charge state: 2, modification: Biotin
[14] = charge state: 2, modification: Propionyl
[15] = charge state: 2, modification: Phospho (Y)
[16] = charge state: 2, modification: hydroxyisobutyryl
[17] = charge state: 3, modification: hydroxyisobutyryl
[18] = charge state: 2, modification: Trimethyl (K)
[19] = charge state: 3, modification: Biotin
[20] = charge state: 3, modification: Methyl (R)
[21] = charge state: 2, modification: Methyl (K)
[22] = charge state: 3, modification: Citrullination (R)
[23] = charge state: 2, modification: HexNAc (ST)
[24] = charge state: 3, modification: HexNAc (ST)
[25] = charge state: 2, modification: Malonyl
[26] = charge state: 3, modification: Malonyl
[27] = charge state: 2, modification: GlyGly (K)
[28] = charge state: 3, modification: GlyGly (K)
[29] = charge state: 2, modification: Crotonyl
[30] = charge state: 3, modification: Crotonyl

In the case of “AAINQKLIETGER [_AAINQK(Gluratylation)LIETGER_]”, the collision cross section [1] is reported as 412.05 ± 1.1 Å² and the collision cross section (charge state: 3, modification: Glutarylation) is reported as 483.6 ± 2.4 Å².
Substance “IVSGKDYNVTANSK [_IVSGK(Dimethyl (K))DYNVTANSK_]” has a collision cross section [2] of 404.57 ± 0.47 Å² and a collision cross section [3] of 462.9 ± 1.6 Å².
Substance “DSINFLDHINGKK [_DSINFLDHINGK(Methyl (K))K_]” has a collision cross section [4] of 461.65 ± 2.7 Å².
“VLDSGAPIKIPVGPETLGR [_VLDSGAPIK(Trimethyl (K))IPVGPETLGR_]” gave a collision cross section [5] of 508.9 ± 0.87 Å².
ISALQGKLSK [_ISALQGK(Acetyl (K))LSK_] gave a collision cross section [6] of 353.22 ± 0.93 Å² and a collision cross section (charge state: 3, modification: Acetyl (K)) of 432.36 Å².
Substance “GFALVGVGSEASSKK [_GFALVGVGSEASSK(Succinyl)K_]” has a collision cross section [7] of 413.38 ± 0.54 Å² and a collision cross section [8] of 497.13 ± 2.5 Å².
In the case of FRSGNYR [_FR(Citrullination (R))SGNYR_], the collision cross section [9] is reported as 327.94 ± 2.8 Å².
Work on LAPEYEAAATR [_LAPEY(Nitro (Y))EAAATR_] yielded a collision cross section [10] of 362.69 ± 1.2 Å² and a collision cross section [11] of 436.11 ± 1.1 Å².
DHLSDKESK [_DHLSDK(Formyl)ESK_] showed a collision cross section [12] of 345.83 ± 0.37 Å².
TPNLYIYSKK [_TPNLYIYSK(Biotin)K_] gave a collision cross section [13] of 409.6 Å².
For LLEEEDSKLK [_LLEEEDSK(Propionyl)LK_], the collision cross section [14] was 383.32 ± 0.94 Å².
With KFGVLSDNFK [_K(Dimethyl (K))FGVLSDNFK_] the collision cross section [2] was 367.27 ± 1.5 Å².
Work on SEGFDTYR [_SEGFDTY(Phospho (Y))R_] yielded a collision cross section [15] of 338.3 ± 0.78 Å².
In the case of “AAINQKLIETGER [_AAINQK(hydroxyisobutyryl)LIETGER_]”, the collision cross section [16] is reported as 409.76 ± 0.32 Å² and the collision cross section [17] is reported as 478.62 Å².
With “LTEKELAEAASK [_LTEK(Trimethyl (K))ELAEAASK_]” the collision cross section [18] was 406.14 ± 0.61 Å² and the collision cross section [5] was 451.11 ± 2.4 Å².
In the case of “TQAYQDQKPGTSGLR [_TQAYQDQK(Biotin)PGTSGLR_]”, the collision cross section [13] is reported as 446.01 ± 0.23 Å² and the collision cross section [19] is reported as 500.74 ± 0.34 Å².
LLRGVGGSHGR [_LLR(Methyl (R))GVGGSHGR_] showed a collision cross section (charge state: 2, modification: Methyl (R)) of 374.24 Å² and a collision cross section [20] of 456.7 ± 11 Å².
In the case of “AGPNASIISLKSDK [_AGPNASIISLK(Methyl (K))SDK_]”, the collision cross section [21] is reported as 413.97 ± 1.5 Å² and the collision cross section [4] is reported as 479.63 ± 3.4 Å².
Substance “YSSNLGNFNYEQRGAFR [_YSSNLGNFNYEQR(Citrullination (R))GAFR_]” has a collision cross section [22] of 530.01 Å².
With “SITHSTVGSKGEK [_SITHSTVGSK(hydroxyisobutyryl)GEK_]” the collision cross section [16] was 401.03 ± 1.4 Å² and the collision cross section [17] was 446.16 ± 2.7 Å².
Substance “LSTPPPLAEEEGLASR [_LS(HexNAc (ST))TPPPLAEEEGLASR_]” has a collision cross section [23] of 448.88 Å² and a collision cross section [24] of 503.24 Å².
For “DDSFLGKLGGTLAR [_DDSFLGK(Biotin)LGGTLAR_]”, the collision cross section [13] was 427.7 ± 0.62 Å² and the collision cross section [19] was 505.13 Å².
With LQNSYQPTNK [_LQNSY(Phospho (Y))QPTNK_] the collision cross section [15] was 366.81 ± 0.064 Å².
Work on “GPPRGGPGGELPR [_GPPR(Citrullination (R))GGPGGELPR_]” yielded a collision cross section [9] of 368.26 ± 0.27 Å² and a collision cross section [22] of 454.52 ± 3.7 Å².
For KYEEIDNAPEER [_K(Malonyl)YEEIDNAPEER_], the collision cross section [25] was 410.49 ± 0.6 Å² and the collision cross section [26] was 491.92 ± 5.7 Å².
Substance “GAEKTEVAEPR [_GAEK(Gluratylation)TEVAEPR_]” has a collision cross section [1] of 362.79 ± 0.71 Å².
LQLEIDQKK [_LQLEIDQK(Succinyl)K_] gave a collision cross section [7] of 370.18 ± 1.1 Å².
“SNEEGSEEKGPEVR [_SNEEGSEEK(Dimethyl (K))GPEVR_]” gave a collision cross section [2] of 393.74 ± 1.1 Å² and a collision cross section [3] of 467.17 ± 0.73 Å².
Work on “FSAYIKNSNPALNDNLEK [_FSAYIK(Malonyl)NSNPALNDNLEK_]” yielded a collision cross section [25] of 479.79 ± 4.5 Å² and a collision cross section [26] of 527.7 ± 2.3 Å².
For “SLGEPAAGEGSAKR [_SLGEPAAGEGSAK(Malonyl)R_]”, the collision cross section [25] was 366.04 ± 1.1 Å².
Substance “GTISAPGKVVTAAAQAK [_GTISAPGK(Methyl (K))VVTAAAQAK_]” has a collision cross section [21] of 466.62 ± 2.3 Å² and a collision cross section [4] of 495.95 ± 2.3 Å².
“VEELEGEITTLNHK [_VEELEGEIT(HexNAc (ST))TLNHK_]” gave a collision cross section [23] of 442.1 ± 10 Å² and a collision cross section [24] of 511.94 ± 0.96 Å².
With “SRGAIISQYYNR [_SR(Citrullination (R))GAIISQYYNR_]” the collision cross section [9] was 408.9 ± 1.3 Å² and the collision cross section [22] was 483.76 Å².
For YTQVGPDHNR [_Y(Nitro (Y))TQVGPDHNR_], the collision cross section [10] was 361.98 ± 1.1 Å² and the collision cross section [11] was 411.69 ± 0.22 Å².
“ANEKTESSSAQQVAVSR [_ANEK(Biotin)TESSSAQQVAVSR_]” showed a collision cross section [13] of 464.95 ± 0.23 Å² and a collision cross section [19] of 569.61 ± 0.95 Å².
Work on “INNFSADIKDSK [_INNFSADIK(Acetyl (K))DSK_]” yielded a collision cross section [6] of 398.34 ± 0.77 Å².
“AGRGFSLEELR [_AGR(Citrullination (R))GFSLEELR_]” gave a collision cross section [9] of 372.54 ± 0.24 Å².
With “PASGAGAGAGAGKR [_PASGAGAGAGAGK(Methyl (K))R_]” the collision cross section [21] was 381.78 ± 0.91 Å² and the collision cross section [4] was 459.46 ± 3.9 Å².
In the case of “GSLEKGSPEDK [_GSLEK(Dimethyl (K))GSPEDK_]”, the collision cross section [2] is reported as 362.2 ± 0.83 Å² and the collision cross section [3] is reported as 433.68 ± 2.1 Å².
With “LTEKELAEAASK [_LTEK(GlyGly (K))ELAEAASK_]” the collision cross section [27] was 404.34 ± 0.36 Å² and the collision cross section [28] was 453.97 ± 1.1 Å².
Work on “GGQGPPGPQGPIGYPGPR [_GGQGPPGPQGPIGYP(Hydroxyproline)GPR_]” yielded a collision cross section (charge state: 2, modification: Hydroxyproline) of 420.55 ± 2.1 Å² and a collision cross section (charge state: 3, modification: Hydroxyproline) of 474.06 ± 0.36 Å².
In the case of “VDIDAPDVSIEGPDAKLK [_VDIDAPDVSIEGPDAK(Gluratylation)LK_]”, the collision cross section [1] is reported as 469.43 ± 1.5 Å².
For “LTSLNVKYNNDK [_LTSLNVK(Trimethyl (K))YNNDK_]”, the collision cross section [18] was 406.52 ± 0.61 Å² and the collision cross section [5] was 461.22 ± 1.8 Å².
In the case of “PASGAGAGAGAGKR [_PASGAGAGAGAGK(Biotin)R_]”, the collision cross section [13] is reported as 377.47 Å² and the collision cross section [19] is reported as 490.64 Å².
In the case of “LTEKELAEAASK [_LTEK(Methyl (K))ELAEAASK_]”, the collision cross section [21] is reported as 392.99 ± 1 Å² and the collision cross section [4] is reported as 445.12 ± 4.9 Å².
Work on “LFVGGIKEDTEEHHLR [_LFVGGIK(Succinyl)EDTEEHHLR_]” yielded a collision cross section [7] of 497.55 Å² and a collision cross section [8] of 541.97 ± 1.1 Å².
For LLEEEDSKLK [_LLEEEDSK(GlyGly (K))LK_], the collision cross section [27] was 386.87 ± 0.88 Å² and the collision cross section [28] was 453.7 ± 1.6 Å².
Work on TPNLYIYSKK [_TPNLYIYSK(Crotonyl)K_] yielded a collision cross section [29] of 385.36 Å² and a collision cross section [30] of 432.18 Å².
For “KYEEIDNAPEER [_K(Methyl (K))YEEIDNAPEER_]”, the collision cross section [21] was 398.83 ± 1.1 Å² and the collision cross section [4] was 466.31 ± 3.7 Å².
Work on “TFGKAAGPSLSHTSGGTQSK [_TFGK(Trimethyl (K))AAGPSLSHTSGGTQSK_]” yielded a collision cross section [5] of 559.57 ± 0.94 Å².
Substance “AGPNASIISLKSDK [_AGPNASIISLK(GlyGly (K))SDK_]” has a collision cross section [27] of 420.97 ± 0.85 Å² and a collision cross section [28] of 488.88 ± 2 Å².
Substance “AGQKLIDVNHYAK [_AGQK(Trimethyl (K))LIDVNHYAK_]” has a collision cross section [5] of 474.3 ± 1.8 Å².
Work on “DLSTVEALQNLKNLK [_DLSTVEALQNLK(Formyl)NLK_]” yielded a collision cross section [12] of 474.81 ± 0.7 Å².
“TLHLSHLNRFPAR [_TLHLSHLNR(Methyl (R))FPAR_]” gave a collision cross section [20] of 503.65 Å².
Work on AYILNLVK [_AY(Phospho (Y))ILNLVK_] yielded a collision cross section [15] of 363.28 ± 0.69 Å².
Substance “ATVASSTQKFQDLGVK [_ATVASSTQK(Crotonyl)FQDLGVK_]” has a collision cross section [29] of 452.45 ± 0.83 Å² and a collision cross section [30] of 494.25 ± 1.6 Å².
In the case of “LDHLAEKFR [_LDHLAEK(hydroxyisobutyryl)FR_]”, the collision cross section [16] is reported as 375.94 ± 0.8 Å² and the collision cross section [17] is reported as 444.1 ± 2 Å².
“VGLQVVAVKAPGFGDNR [_VGLQVVAVK(Butyryl)APGFGDNR_]” gave a collision cross section (charge state: 2, modification: Butyryl) of 450.45 ± 0.52 Å² and a collision cross section (charge state: 3, modification: Butyryl) of 500.38 ± 1.9 Å².
With “VRLQTTLR [_VR(Citrullination (R))LQTTLR_]” the collision cross section [9] was 344.05 ± 1.2 Å².
For “THLAPYSDELR [_THLAPY(Phospho (Y))SDELR_]”, the collision cross section [15] was 373.88 ± 0.063 Å² and the collision cross section (charge state: 3, modification: Phospho (Y)) was 446.73 ± 1.1 Å².
Work on LGNDFHTNKR [_LGNDFHTNK(GlyGly (K))R_] yielded a collision cross section [27] of 384.34 ± 1.5 Å² and a collision cross section [28] of 447.63 ± 1.2 Å².
Substance “ISALQGKLSK [_ISALQGK(Gluratylation)LSK_]” has a collision cross section [1] of 358.52 ± 0.083 Å².
“ALYETELADAR [_ALY(Phospho (Y))ETELADAR_]” gave a collision cross section [15] of 383.83 ± 0.063 Å².
“LQEKVESAQSEQK [_LQEK(Propionyl)VESAQSEQK_]” gave a collision cross section [14] of 417.86 ± 1.3 Å² and a collision cross section (charge state: 3, modification: Propionyl) of 502.35 ± 1.5 Å².
